The values below come from the supplement of paper PMC12764529.

± gives the half width of the 95% confidence interval.

Series [1] in a line: folding stability dG unfold from trypsin proteolysis; higher = more stable. A digest of the protocol:
(§1)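 Designed mini-proteins (under 80 residues, no cysteine) in a PA-tagged cDNA display construct were digested with trypsin and chymotrypsin. Each protease was used at 11 concentrations (threefold dilutions) plus a no-protease condition, followed by sequencing. K50 was inferred by Bayesian fitting of sequencing counts, and unfolding free energy was derived against a sequence-predicted unfolded-state K50 and a shared folded-state K50, per protease or combined. Only designs with AlphaFold2 dimer inter-PAE above 15 were kept.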

The nature of series [2]: folding stability dG unfold from chymotrypsin proteolysis; higher = more stable. In short, it runs like this:
as §1

The nature of series [3]: folding stability dG unfold (combined trypsin and chymotrypsin); higher = more stable. In short, it runs like this:
as §1

As for “SAAAENGEITISVEVELDPETNTLTIKRVEITVNGKLIATATLTITLPPPPPEPEETVYVHPDDPEALKSAG [r14_571_TrROS_Hall]”, the results for the “folding stability dG unfold” value in series [1], in series [2] and in series [3] were 1.54 ± 0.023 kcal/mol, 1.97 ± 0.038 kcal/mol and 1.85 ± 0.093 kcal/mol, respectively.

In the case of “SAAFAIKAIATPPNGKKYEILALDNGEGVLVFIENGSKEIPLEELIKLIENNPELKIEKIEIRPLSEFLSAG [r14_336_TrMRF]”, the figures for the “folding stability dG unfold” value in series [1], in series [2] and in series [3] were 0.667 ± 0.11 kcal/mol, 0.486 ± 0.19 kcal/mol and 0.611 ± 0.17 kcal/mol, respectively.

Regarding “SAAFKGKNGKTIKITAKVKPNELTPEQVKELALAAVKNIFPENEKVEVKVKVEKLPNGEVLVYVEVKAESAG [r14_389_TrMRF]”, the “folding stability dG unfold” value came to 1.22 ± 0.038 kcal/mol in series [1], 0.342 ± 0.17 kcal/mol in series [2] and 0.905 ± 0.085 kcal/mol in series [3].

With “SAAKIYILPGNNVILVRPPLPNGPFGELVIPTKPSELENPEFLKEIVDEIRKAGIPFEATILPPGVPPESAG [r14_60_TrMRF]”, the figures for the “folding stability dG unfold” value in series [1], in series [2] and in series [3] were 0.426 ± 0.089 kcal/mol, 1.34 ± 0.11 kcal/mol and 0.868 ± 0.24 kcal/mol, respectively.

With “SAAKKLKELGYKVKKVEVLKPFTLPDGTTLTEYRITVELPTKTVTVDIIAPGESPEIAEEAALAAITASSAG [r14_726_TrMRF]”, the “folding stability dG unfold” value in series [1] came to 1.25 ± 0.016 kcal/mol; in series [2], 3.157 ± 0.011 kcal/mol; in series [3], 2.81 ± 0.051 kcal/mol.

With “SAALAELLLNEGYEVRIEVEVREVRPRTLPGGGTTVELDITVRIELRPPPIPPPPLDPRLLRDEDGHLRSAG [r14_569_TrMRF]”, the “folding stability dG unfold” value is 2.35 ± 0.037 kcal/mol in series [1], 1.95 ± 0.071 kcal/mol in series [2] and 2.15 ± 0.1 kcal/mol in series [3].

As to “SAANPKDIVKAEIEIPGKYGAKFTVYTLPDGTVIVPAEVTLIEGDKPVKKPLVLVVDASTGKILAIADASAG [r14_630_TrMRF]”, the “folding stability dG unfold” value in series [1] was 1.09 ± 0.033 kcal/mol; in series [2] it was 1.68 ± 0.06 kcal/mol; in series [3], 1.46 ± 0.042 kcal/mol.

For the sequence “SAARVTVTYDPATNTVTVTVEVEVDGVTVTVTATVTFVDGRLVLTVTVEVRPPPPPPSAEQLAALRAAASAG [r14_930_TrROS_Hall]”, the “folding stability dG unfold” value in series [1] turned out to be 2.92 ± 0.19 kcal/mol; in series [2], 2.69 ± 0.072 kcal/mol; in series [3], 2.74 ± 0.33 kcal/mol.

In the case of “SAAVTPLTETIPYTPEEARAAAEEVAAARAAALRAAGYRVLSVDVVEMEPGEYVIRMRLTVAAPDEALPSAG [r14_973_JUSTAS]”, the results for the “folding stability dG unfold” value in series [1], in series [2] and in series [3] were 2.22 ± 0.033 kcal/mol, 3.12 ± 0.036 kcal/mol and 2.86 ± 0.06 kcal/mol, respectively.

On to “SADDDEEQKEKQKPKPQIPIKPVATYNFPDHPFEIWEIDPDNGRIIIRFWGNGWWYEMDPEDGEWEWYPSAG [r14_359_TrROS]”, for which the figures for the “folding stability dG unfold” value in series [1], in series [2] and in series [3] were 1.81 ± 0.064 kcal/mol, 2.26 ± 0.059 kcal/mol and 2.14 ± 0.14 kcal/mol, respectively.

Turning to “SADGKVKVVVNLRITVTPLSPDGTPQPLPAASIPLVFEGDANDPEAVEQAVRDVLDALAPLFPDAEIVVDSA [r9_1112_TrMRF]”, the results for the “folding stability dG unfold” value in series [1], in series [2] and in series [3] were 1.23 ± 0.082 kcal/mol, 1.98 ± 0.046 kcal/mol and 1.73 ± 0.13 kcal/mol, respectively.

With “SADPPDAVKIEIRIYMMEYDPDGKWEQREFNIEIEVAPDGHIIIRLGNWWIVIDPKEGEVTEIFPGFRFSAG [r14_821_TrROS]”, the “folding stability dG unfold” value in series [1] was determined as 3.43 ± 0.13 kcal/mol; in series [2] it was 3.67 ± 0.18 kcal/mol; in series [3] it was 3.14 ± 0.39 kcal/mol.

Take “SADRIKINVMTHQSPDGRPYYMVSIRIPGNGKEIMGPIDSPEDAEEQAKEIADKLEKEGIPIEVEIYPMSAG [r14_263_TrROS]”: the “folding stability dG unfold” value in series [1] turned out to be 2.13 ± 0.066 kcal/mol; in series [2], 1.82 ± 0.09 kcal/mol; in series [3], 1.94 ± 0.17 kcal/mol.

As to “SADYVLYLVTLKVRRKVGDKEYELEVPLLILAPEDELDESEIEAIAREAAAELGAEVEEVKIERLPLNASAG [r14_278_TrMRF]”, the “folding stability dG unfold” value in series [1] was found to be 3.94 ± 0.11 kcal/mol; in series [2] it was 4.88 ± 0.086 kcal/mol; in series [3], 4.66 ± 0.059 kcal/mol.

For the sequence “SAEDEYEVELTFEAPLNEPEVIEKIKKELEELGFEIEEVKVEVLEDPKTVKVTLKARVKGIPPEKLKALSAG [r14_956_TrMRF]”, the “folding stability dG unfold” value in series [1] amounted to 1.78 ± 0.033 kcal/mol; in series [2], 1.92 ± 0.099 kcal/mol; in series [3], 1.82 ± 0.086 kcal/mol.

As to “SAEELAEAEARRLGVDPAAVALEVTEEVDPLTGKPRKIVTVTIALPDRAYVITVDASDGTVLERRPLEAASA [r9_1219_JUSTAS]”, the “folding stability dG unfold” value is 2.33 ± 0.051 kcal/mol in series [1], 2.15 ± 0.034 kcal/mol in series [2] and 2.28 ± 0.081 kcal/mol in series [3].

As for “SAEERVFLVPVERRPDGSVRLRFVRPDRVVELELPAGFTVEDALQALSAHPDLRVEVLEAHPDLVLVRGSAG [r14_404_TrMRF]”, the “folding stability dG unfold” value in series [1] worked out at 1.824 ± 0.017 kcal/mol; in series [2] it was 2.741 ± 0.023 kcal/mol; in series [3], 2.46 ± 0.054 kcal/mol.

For the sequence “SAEEVEIEIEIVIKMSEEEAERLAKELAEELARELGAEIVDVEVEVVEVDGELYVRIRVKIRLPKEELESAG [r14_219_TrROS_Hall]”, the results for the “folding stability dG unfold” value in series [1], in series [2] and in series [3] were 3.47 ± 0.098 kcal/mol, 4.7 ± 0.17 kcal/mol and 4.23 ± 0.14 kcal/mol, respectively.
